Earlier results in patent publication US10464968B2, “Method for producing a composition for treating a tooth lesion” (CREDENTIS AG, priority 2012, dated 2019).
Like-named read-outs stand apart in the source and are kept apart here. No end group written: not given here.

For “QQRFEWEFEQQ [Example P11-4, self-assembling peptide of 11 amino acids]”, the “phase state of aqueous solution” value (above pH 7.5) is listed as “isotropic fluid”, the “phase state of aqueous solution” value (below pH 3) is listed as “nematic gel” and the “phase state of aqueous solution” value (between about pH 5 and about pH 3) is listed as “flocculate”. The “phase state of aqueous solution” value (between about pH 7.5 and about pH 5) was “nematic fluid”.
